Molecular target: T1, ER (Homo sapiens, UniProt P03372)
T1 construct: expressed in transfected cells; host or cells: DU145
T1 sequence (P03372 1-595): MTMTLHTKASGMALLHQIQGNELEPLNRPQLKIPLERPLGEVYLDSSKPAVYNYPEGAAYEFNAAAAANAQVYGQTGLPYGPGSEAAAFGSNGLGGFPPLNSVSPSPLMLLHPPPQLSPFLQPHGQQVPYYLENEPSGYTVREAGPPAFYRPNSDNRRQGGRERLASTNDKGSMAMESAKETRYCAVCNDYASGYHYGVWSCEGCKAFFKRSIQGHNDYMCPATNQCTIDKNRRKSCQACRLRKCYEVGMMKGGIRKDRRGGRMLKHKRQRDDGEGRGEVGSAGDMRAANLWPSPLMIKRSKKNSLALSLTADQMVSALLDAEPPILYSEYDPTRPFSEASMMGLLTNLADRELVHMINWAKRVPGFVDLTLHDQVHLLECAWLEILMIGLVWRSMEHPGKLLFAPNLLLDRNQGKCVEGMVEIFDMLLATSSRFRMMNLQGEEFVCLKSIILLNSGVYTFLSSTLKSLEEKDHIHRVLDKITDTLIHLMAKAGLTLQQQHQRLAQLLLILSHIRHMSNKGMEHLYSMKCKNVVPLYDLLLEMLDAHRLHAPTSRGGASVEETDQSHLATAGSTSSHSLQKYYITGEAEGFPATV
Test: ER transcription activity, ERE-CAT reporter (Example 1)
Assay type: cell-based
Conditions: DU145 cells
Method: 366. Human prostate cancer DU145 or PC3 cells, or human lung carcinoma cells NCI H1299 were grown in Dulbecco's minimal essential medium (DMEM) containing penicillin (25 U/ml), streptomycin (25˜g/ml), and 5% fetal calf serum (FCS). One hour before transfection, the medium was changed to DMEM with 5% charcoal-stripped FCS. Phenol red-free and serum-free media were used on the experiments employing E2 or TGF-β, respectively. A β-galactosidase expression plasmid, pCMV-β-gal, was used as an internal control for transfection efficiency.
367. Cells were transfected using the calcium phosphate technique (Yeh, et al. Molec. Endocrinol. 8:77-88, 1994). The medium was changed 24 hr posttransfection and the cells treated with either steroid hormones or hydroxyflutamide, and cultured for an additional 24 hr. Cells were harvested and assayed for CAT activity after the cell lysates were normalized by using β-galactosidaseas an internal control. Chloramphenicol acetyltransferase (CA) activity was visualized by PhosphorImager (Molecular Dynamics) and quantitated by ImageQuant software (Molecular Dynamics).

- effect on ER transcription activity: less than 2 fold
B1: ARA54: 54 kDa protein that interacts with AR in an androgen-dependent manner; AR coactivator (protein)
chain: MSSEDREAQEDELLALASIYDGDEFRKAESVQGGETRIYLDLPQNFKIFVSGNSNECLQNSGFEYTICFLPPLVLNFELPPDYPSSSPPSFTLSGKWLSPTQLSALCKHLDNLWEEHRGSVVLFAWMQFLKEETLAYLNIVSPFELKIGSQKKVQRRTAQASPNTELDFGGAAGSDVDQEEIVDERAVQDVESLSNLIQEILDFDQAQQIKCFNSKLFLCSICFCEKLGSECMYFLECRHVYCKACLKDYFEIQIRDGQVQCLNCPEPKCPSVATPGQVKELVEAELFARYDRLLLQSSLDLMADVVYCPRPCCQLPVMQEPGCTMGICSSCNFAFCTLCRLTYHGVSPCKVTAEKLMDLRNEYLQADEANKRLLDQRYGKRVIQKALEEMESKEWLEKNSKSCPCCGTPIEKLDGCNKMTCTGCMQYFCWICMGSLSRANPYKHFNDPGSPCFNRLFYAVDVDDDIWEDEVED

Reference: US20060270591A1, “Androgen receptor coregulators” (priority 2002, published 2006)
